The target of the assay is OmpC porin purified from Salmonella typhi (Salmonella enterica subsp. enterica serovar Typhi). The assay is described as follows: phage display panning on OmpC; frequency among 8 sequenced binding phage.

Turning to OmpC affinity peptide SLSLIQT, the Frequency (fraction of sequenced phage clones) came to 0.125.
For OmpC affinity peptide TATYLLD, the Frequency (fraction of sequenced phage clones) is 0.125.

For the origin of these results see patent US20110206727A1.
